The subject of data set [1] is Saccharomyces cerevisiae. Put plainly: protein stability index of tFT-peptide fusion (C-terminal peptide) (PSI (0-1 scale)); higher = more stable (slower turnover). Here is the method: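 MPS profiling in S. cerevisiae of the tFT-X12 degron library: putative degron peptides plus stable controls, 12 aa, fused to the C-terminus of a sfGFP-mCherry timer. Cells are FACS-sorted into 8 mCherry/sfGFP bins and deep-sequenced. PSI runs from 0 (unstable) to 1 (stable). Backgrounds are wild type, das1Δ and doa10Δ at 30 °C, and wild type, das1Δ, cdc34-1 and cdc53-1 at 37 °C; 2-3 technical replicates each.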

Data set [2] relates to Saccharomyces cerevisiae. Described as above. Particulars: genetic background: wild type; temperature: 30 C.
Where [3] appears, read: genetic background: cdc34-1, temperature: 37 C.
[4] abbreviates: genetic background: cdc53-1, temperature: 37 C.
Where [5] appears, read: genetic background: das1 deletion, temperature: 30 C.
[6] abbreviates: genetic background: das1 deletion, temperature: 37 C.
[7] abbreviates: genetic background: doa10 deletion, temperature: 30 C.
Setting [8] is: genetic background: wild type, temperature: 30 C.
[9] abbreviates: genetic background: wild type, temperature: 37 C.

± gives the standard deviation of the averaged measurements.
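Note: PSI is a weighted mean of sequencing reads over stability bins, variants kept only with over 10 reads, mCherry proximal and sfGFP distal, peptide attached via GGGS linker.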

On to ACFLFPSHLLIS, for which the protein stability index in the data set with Saccharomyces cerevisiae [1] (setting [3]) is 0.584 ± 0.021; with Saccharomyces cerevisiae [1] (setting [4]), 0.689 ± 0.0086; in the data set with Saccharomyces cerevisiae [1] (setting [5]) it was 0.541 ± 0.02; in the data set on Saccharomyces cerevisiae [1] (setting [6]), 0.699 ± 0.021; with Saccharomyces cerevisiae [1] (setting [7]) it was 0.165 ± 0.023; with Saccharomyces cerevisiae [1] (setting [8]) it was 0.181 ± 0.011. Besides, the values for the protein stability index in the data set with Saccharomyces cerevisiae [1] (setting [9]) and in the data set on Saccharomyces cerevisiae [2] were 0.3022 ± 0.0017 and 0.305 ± 0.0099, respectively.

Take AFCGRRGHQFYN: the protein stability index in the data set on Saccharomyces cerevisiae [1] (setting [3]) came out at 0.61 ± 0.0073; in the data set on Saccharomyces cerevisiae [1] (setting [4]), 0.743 ± 0.016; with Saccharomyces cerevisiae [1] (setting [5]), 0.648 ± 0.018; in the data set on Saccharomyces cerevisiae [1] (setting [6]) it was 0.746 ± 0.037; in the data set on Saccharomyces cerevisiae [1] (setting [7]), 0.144 ± 0.0093; in the data set on Saccharomyces cerevisiae [1] (setting [8]) it was 0.164 ± 0.014. Moreover, the protein stability index with Saccharomyces cerevisiae [1] (setting [9]) worked out at 0.42 ± 0.027; in the data set on Saccharomyces cerevisiae [2], 0.263 ± 0.061.

Turning to AFRFFWFFFFTS, the protein stability index came to 0.536 ± 0.066 with Saccharomyces cerevisiae [1] (setting [3]); 0.619 ± 0.042 with Saccharomyces cerevisiae [1] (setting [4]); 0.466 ± 0.024 in the data set on Saccharomyces cerevisiae [1] (setting [5]); 0.603 ± 0.035 with Saccharomyces cerevisiae [1] (setting [6]); 0.446 ± 0.0062 in the data set on Saccharomyces cerevisiae [1] (setting [7]); 0.426 ± 0.017 with Saccharomyces cerevisiae [1] (setting [8]). The protein stability index in the data set on Saccharomyces cerevisiae [1] (setting [9]) turned out to be 0.557 ± 0.018; in the data set on Saccharomyces cerevisiae [2], 0.445 ± 0.03.

AFSISPFRLRMV: the protein stability index came to 0.642 ± 0.026 in the data set with Saccharomyces cerevisiae [1] (setting [3]); 0.753 ± 0.025 with Saccharomyces cerevisiae [1] (setting [4]); 0.649 ± 0.013 in the data set with Saccharomyces cerevisiae [1] (setting [5]); 0.746 ± 0.03 in the data set on Saccharomyces cerevisiae [1] (setting [6]); 0.249 ± 0.0032 in the data set with Saccharomyces cerevisiae [1] (setting [7]); 0.293 ± 0.022 in the data set on Saccharomyces cerevisiae [1] (setting [8]). The protein stability index in the data set on Saccharomyces cerevisiae [1] (setting [9]) came to 0.541 ± 0.0024; in the data set on Saccharomyces cerevisiae [2], 0.418 ± 0.017.

In the case of APLFPPPPARSL, the protein stability index in the data set on Saccharomyces cerevisiae [1] (setting [3]) came to 0.652 ± 0.034; in the data set with Saccharomyces cerevisiae [1] (setting [4]), 0.7023 ± 0.0017; with Saccharomyces cerevisiae [1] (setting [5]), 0.661 ± 0.014; in the data set on Saccharomyces cerevisiae [1] (setting [6]) it was 0.704 ± 0.011; in the data set with Saccharomyces cerevisiae [1] (setting [7]) it was 0.692 ± 0.017; in the data set with Saccharomyces cerevisiae [1] (setting [8]), 0.677 ± 0.03. The protein stability index in the data set with Saccharomyces cerevisiae [1] (setting [9]) was 0.688 ± 0.041.

With AYSVIPSLALLP, the protein stability index came out at 0.681 ± 0.062 in the data set with Saccharomyces cerevisiae [1] (setting [3]); 0.741 ± 0.008 in the data set with Saccharomyces cerevisiae [1] (setting [4]); 0.631 ± 0.024 with Saccharomyces cerevisiae [1] (setting [5]); 0.731 ± 0.0022 with Saccharomyces cerevisiae [1] (setting [6]); 0.646 ± 0.018 with Saccharomyces cerevisiae [1] (setting [7]); 0.632 ± 0.01 in the data set with Saccharomyces cerevisiae [1] (setting [8]). Further, the protein stability index with Saccharomyces cerevisiae [1] (setting [9]) was found to be 0.706 ± 0.0094.

FFCRWGSTVTLL: the protein stability index in the data set on Saccharomyces cerevisiae [1] (setting [3]) amounted to 0.604 ± 0.034; in the data set with Saccharomyces cerevisiae [1] (setting [4]) it was 0.696 ± 0.013; with Saccharomyces cerevisiae [1] (setting [5]), 0.557 ± 0.014; in the data set with Saccharomyces cerevisiae [1] (setting [6]), 0.647 ± 0.037; with Saccharomyces cerevisiae [1] (setting [7]), 0.4076 ± 0.001; in the data set on Saccharomyces cerevisiae [1] (setting [8]), 0.427 ± 0.01. The sequence further showed a protein stability index with Saccharomyces cerevisiae [1] (setting [9]) of 0.559 ± 0.011.

For GAVRGWGWVSFV, the protein stability index is 0.622 ± 0.0072 in the data set on Saccharomyces cerevisiae [1] (setting [3]); 0.789 ± 0.011 with Saccharomyces cerevisiae [1] (setting [4]); 0.595 ± 0.025 in the data set on Saccharomyces cerevisiae [1] (setting [5]); 0.71792 ± 4.5e-05 in the data set with Saccharomyces cerevisiae [1] (setting [6]); 0.357 ± 0.054 in the data set on Saccharomyces cerevisiae [1] (setting [7]); 0.317 ± 0.04 with Saccharomyces cerevisiae [1] (setting [8]). The sequence also came in with a protein stability index in the data set with Saccharomyces cerevisiae [1] (setting [9]) of 0.436 ± 0.0078.

For GFYQSGGLVVVV, the protein stability index in the data set on Saccharomyces cerevisiae [1] (setting [3]) was determined as 0.6489 ± 0.0026; in the data set with Saccharomyces cerevisiae [1] (setting [4]) it was 0.674 ± 0.014; in the data set with Saccharomyces cerevisiae [1] (setting [5]), 0.501 ± 0.03; in the data set on Saccharomyces cerevisiae [1] (setting [6]), 0.663 ± 0.0058; with Saccharomyces cerevisiae [1] (setting [7]), 0.482 ± 0.017; with Saccharomyces cerevisiae [1] (setting [8]), 0.515 ± 0.013. Besides, in the data set on Saccharomyces cerevisiae [1] (setting [9]), the protein stability index came out at 0.64 ± 0.028.

Take GGGGGGGDVLVW: the protein stability index in the data set on Saccharomyces cerevisiae [1] (setting [3]) came out at 0.265 ± 0.04; in the data set on Saccharomyces cerevisiae [1] (setting [4]) it was 0.363 ± 0.036; in the data set on Saccharomyces cerevisiae [1] (setting [5]), 0.265 ± 0.037; with Saccharomyces cerevisiae [1] (setting [6]), 0.426 ± 0.0099; in the data set with Saccharomyces cerevisiae [1] (setting [7]), 0.202 ± 0.022; with Saccharomyces cerevisiae [1] (setting [8]), 0.244 ± 0.034. In the data set on Saccharomyces cerevisiae [1] (setting [9]), the protein stability index was 0.392 ± 0.0048.

On to LPLPPPGSPPPL, for which the protein stability index with Saccharomyces cerevisiae [1] (setting [3]) is 0.653 ± 0.032; in the data set on Saccharomyces cerevisiae [1] (setting [4]), 0.744 ± 0.036; with Saccharomyces cerevisiae [1] (setting [5]) it was 0.668 ± 0.021; in the data set on Saccharomyces cerevisiae [1] (setting [6]), 0.726 ± 0.0077; in the data set with Saccharomyces cerevisiae [1] (setting [7]), 0.659 ± 0.014; with Saccharomyces cerevisiae [1] (setting [8]), 0.682 ± 0.033. For the same sequence, the protein stability index in the data set with Saccharomyces cerevisiae [1] (setting [9]) was 0.698 ± 0.0069.

PSLVFLPPPPPR: the protein stability index is 0.673 ± 0.04 in the data set with Saccharomyces cerevisiae [1] (setting [3]); 0.7452 ± 0.0056 with Saccharomyces cerevisiae [1] (setting [4]); 0.677 ± 0.0098 with Saccharomyces cerevisiae [1] (setting [5]); 0.7475 ± 0.0016 in the data set on Saccharomyces cerevisiae [1] (setting [6]); 0.681 ± 0.018 in the data set on Saccharomyces cerevisiae [1] (setting [7]); 0.701 ± 0.025 in the data set on Saccharomyces cerevisiae [1] (setting [8]). In the data set with Saccharomyces cerevisiae [1] (setting [9]), this sequence gave a protein stability index of 0.72099 ± 0.00046.

Turning to RDTTQRRRKTAA, the protein stability index came to 0.657 ± 0.039 with Saccharomyces cerevisiae [1] (setting [3]); 0.662 ± 0.026 in the data set with Saccharomyces cerevisiae [1] (setting [4]); 0.6608 ± 0.0048 in the data set with Saccharomyces cerevisiae [1] (setting [5]); 0.6583 ± 0.005 with Saccharomyces cerevisiae [1] (setting [6]); 0.443 ± 0.0084 in the data set with Saccharomyces cerevisiae [1] (setting [7]); 0.448 ± 0.012 with Saccharomyces cerevisiae [1] (setting [8]). Further, the protein stability index with Saccharomyces cerevisiae [1] (setting [9]) was 0.60824 ± 0.00016.

Take RWRLWGGWWVVG: the protein stability index in the data set with Saccharomyces cerevisiae [1] (setting [3]) turned out to be 0.601 ± 0.028; in the data set on Saccharomyces cerevisiae [1] (setting [4]) it was 0.727 ± 0.012; in the data set with Saccharomyces cerevisiae [1] (setting [5]), 0.579 ± 0.022; in the data set with Saccharomyces cerevisiae [1] (setting [6]), 0.718 ± 0.017; in the data set with Saccharomyces cerevisiae [1] (setting [7]) it was 0.191 ± 0.019; in the data set with Saccharomyces cerevisiae [1] (setting [8]), 0.196 ± 0.022. Besides, in the data set on Saccharomyces cerevisiae [1] (setting [9]), the protein stability index was found to be 0.419 ± 0.015.
